Results: patent CN104974246A (INST PASTEUR SHANGHAI CAS, dated 2015)

Tests used:
Assay in all cases: cell-based or functional assay
[1] = target: HCV 2a亚型 PR79 毒株的 E2蛋白 (on virus) (hepatitis C virus subtype 2a, strain …)
[2] = target: T1, HCV 2a亚型 JFH1 毒株的 E2蛋白 (on virus) (hepatitis C virus subtype 2a, strain …, UniProt Q99IB8 384-750)
T1 sequence: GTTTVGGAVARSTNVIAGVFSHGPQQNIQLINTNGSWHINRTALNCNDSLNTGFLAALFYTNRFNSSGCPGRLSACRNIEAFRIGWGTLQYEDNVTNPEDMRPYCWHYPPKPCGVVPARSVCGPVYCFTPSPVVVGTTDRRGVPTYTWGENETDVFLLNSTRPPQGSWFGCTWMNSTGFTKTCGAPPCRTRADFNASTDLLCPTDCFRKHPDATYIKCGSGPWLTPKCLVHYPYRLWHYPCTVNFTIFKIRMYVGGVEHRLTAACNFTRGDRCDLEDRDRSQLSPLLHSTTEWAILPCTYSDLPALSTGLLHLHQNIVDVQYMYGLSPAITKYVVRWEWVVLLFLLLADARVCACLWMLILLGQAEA

[3] = target: HCV 1b亚型 PR79 毒株的 E2蛋白 (on virus) (hepatitis C virus subtype 1b, strain …)
[4] = target: HCV 1b亚型 PR52B6M 毒株的 E2蛋白 (on virus) (hepatitis C virus subtype 1b, strain …)

Measured: 对 HCV真病毒的抑制率 (真病毒中和试验)

B1: 全人单克隆抗体7F2 (antibody, V domains shown)
VH: QVQLQQWGAGLLKPSETLSLTCAVYGGSFSGYYWNWIRQPPGKGLEWIGEINPRGTANHNPSLKSRVTISVGTSRNQFSLKLRAVTAADTAVYYCARGIHDTLTGYLAFYFDYWGQGTPVTVSS
VL: DIQMTQSPSSLSASVGDTVTITCRASQNIDRHLNWYQQKAGKAPKVLIYAASGLQSGVSSRFSGSGSGTEFTLTINDLEPEDFATYYCQQYYDTLGYTFGQGTKVEIK
> 90%: all assays above
